Source: paper PMC6900432, “Zinc binding regulates amyloid-like aggregation of GAPR-1” (Bioscience Reports, 2019)

Target: the molecule itself
Experiment: non-reducing SDS/PAGE and Western blot of oligomers; 15 uM GAPR-1 with 37.5 uM heparin and 100 uM Zn2+ in NT-50 buffer (25 mM Tris, 50 mM NaCl, pH 7.4) at 37 C; aliquots at 0, 2, 7 and 20 h, non-reducing Laemmli buffer, boiled 5 min; blot with rabbit polyclonal anti-GAPR-1

B1: Golgi-Associated plant Pathogenesis Related protein 1 (GAPR-1), wild type (natural protein)
chain: MGKSASKQFHNEVLKAHNEYRQKHGVPPLKLCKNLNREAQQYSEALASTRILKHSPESSRGQCGENLAWASYDQTGKEVADRWYSEIKNYNFQQPGFTSGTGHFTAMVWKNTKKMGVGKASASDGSSFVVARYFPAGNVVNEGFFEENVLPPKK
notes: GAPR-1 (GLIPR-2), UniProt Q9H4G4 as printed; No tag is named; purification was by cation exchange; also called GAPR-1 WT; GLIPR-2; source: E. coli XL-1 Blue, purified (cation exchange, SP Sepharose FF)
B1: binds.
